Experimental data reported in patent US20150018283A1.

What was measured:
[1] = target: N-type calcium channels in cultured mouse dorsal root ganglion (DRG) neurons (Swiss mice) (UniProt O55017); experiment: cell-based or functional assay
IL-8RB = IL-8RB (UniProt P25025); experiment: competitive radioligand binding; 10 µM unlabelled Tat-NR2B9c; competitor labeled IL-8
[2] = target: N-type Ca channels (receptor binding screen of Example 1)

IL-8RB, sequence (P25025 whole entry): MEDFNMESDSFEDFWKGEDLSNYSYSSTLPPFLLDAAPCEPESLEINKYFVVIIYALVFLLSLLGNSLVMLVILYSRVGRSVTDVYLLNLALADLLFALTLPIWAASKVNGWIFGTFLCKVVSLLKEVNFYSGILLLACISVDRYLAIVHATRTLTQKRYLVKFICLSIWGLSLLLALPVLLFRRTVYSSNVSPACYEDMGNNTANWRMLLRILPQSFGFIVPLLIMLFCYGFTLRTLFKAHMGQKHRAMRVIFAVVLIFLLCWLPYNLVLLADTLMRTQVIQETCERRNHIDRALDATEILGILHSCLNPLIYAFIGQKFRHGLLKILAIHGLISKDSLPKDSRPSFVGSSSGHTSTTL

Row | Molecule | Ca^2+ current shown as a percentage, peptide at 100 µM [1] [%] | % inhibition of labeled ligand binding (IL-8RB) [%] | % inhibition of labeled ligand binding [2] [%]
1 | 1987 D-Tat-NR2B9c (peptide) | 82 |  | 
2 | 1990 TAT (peptide) | 57 |  | 
3 | 1992 Tat-NR2B9c-AA (peptide) | 74 |  | 
4 | 1993 F-Tat-NR2B9c (peptide) | 91 |  | 
5 | Tat-NR2B9c (peptide) |  | 80 | 100
6 | KLSSIESDV [1991 2B9c] | 94 |  | 
